# Reference: the nanobody polyreactivity screen of Harvey et al. (2022)
# Assay: yeast display, Sf9 membrane polyspecificity reagent, FACS + sequencing; frameworks hold sequencing errors
# Summary of the method: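 A nanobody's polyreactivity label depends on the gate it was sorted from. Yeast display cells were stained with 10% biotinylated, detergent-solubilized Sf9 membrane reagent for 1 hour at 4 °C, enriched on streptavidin microbeads and sorted by FACS. The low and high (top ~1%) gates were set on anti-HA fluorescence for expression and streptavidin fluorescence for reagent binding.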
row,Sequence,polyreactivity (PSR sort gate)
1,QVQLVESGGGLVQAGGSLRLSCAASGSIFYAYVMGWYRQAPGKERELVAAISSRGGSTHYADSVKGRFTISRDNAKNTVYLQMNSLKPEDTAVYYCAAARGKDGYWGQGTQVTVSS,high polyreactivity
2,QVQLVESGGGLVQAGGSLRLSCAASGSIFYDNAMGWYRQAPGKEREFVAAISTSGGSTYYADSVKGRFTISRDTAKNTVYLQMNSLKPEDTAVYYCAAEWPDLGYWWWYDVGYGYWGQGTQVTVSS,high polyreactivity
3,QVQLVESGGGLVQAGGSLRLSCAASGSIFYDNAMGWYRQAPGKERELVAAIDDSDRTYYADSEKGRFTISRDNAKNTVYLQMNSLKPEDTAVYYCARDRWKWHYGYDYWGQGTQVTVSS,low polyreactivity
4,QVQLVESGGGLVQAGGSLRLSCAASGSIFYDNAMGWYRQAPGKERELVAAITSTGGSTYYADSVKGRFTISRDNAKNTVYLQMNSLKPEDTAVYYCNTPTYLYWGFYTYDYWGQGTQVTVSS,low polyreactivity
5,QVQLVESGGGLVQAGGSLRLSCAASGSIFYDNGMGWYRQAPGKERELVAAISRGGTTNYADSVKGRFTISRDKAKNTVYLQMNSLKPEDTAVYYCNAETRFTYWGSWYDYWGQGTQVTVSS,low polyreactivity
6,QVQLVESGGGLVQAGGSLRLSCAASGSIFYDYAMGWYRQATRKERELVPAITNDDSSTYYADSVKGRFTISRDNAKNTVYLQMNSLKPEDTAVYYCRFKYAVAHHFWVYRYDYWGQGTQVTVSS,low polyreactivity
7,QVQLVESGGGLVQAGGSLRLSCAASGSIFYEYAMGWYRQAPGKEREFVASISWSGGITYYADSVKGRFTISRDNAKNTVYLQMNSLKPEDTAVYYCAADFSWYLYDYDYWGQGTQVTVSA,low polyreactivity
8,QVQLVESGGGLVQAGGSLRLSCAASGSIFYEYTMGWYRQAPGKERELVAVITSGGTTNYADSVKGRFTISRDNAKNTVYLQMNSLKPEYTAVYYCAAESKNKYDYWGQGTQVTVSS,high polyreactivity
9,QVQLVESGGGLVQAGGSLRLSCAASGSIFYFNAMGWYRQAAGKEWELVATISRRGGSTYYADSVKGRFTISRDNAKKTVYLQMNSLKPEDTAVYYCAADYYTLYPVYIKRYGYWGQGTQVTVSS,high polyreactivity
10,QVQLVESGGGLVQAGGSLRLSCAASGSIFYFNTMAWYRQAPGKERELVAVISRRGGSTYYADSVKRRFTISRDNAKNTVYLQMNSLKPEDTAVYYCNAEVFDLWRSFLSPYEYWGQGTQVTVSS,low polyreactivity
11,QVQLVESGGGLVQAGGSLRLSCAASGSIFYFNVMGWYRQAPGKERELVATITWRDASTNYADSVKARFTISRDNAKNTVYLQMNSLKPEDTAVYYCNADSDWGYFDYDYYYWGQGTEVTVSS,low polyreactivity
12,QVQLVESGGGLVQAGGSLRLSCAASGSIFYFYAMRWYRQAPGKERELVAAITDGGASTRYADSVKGRFTISRDYAKNTVYLHMNSLKPEDTAVYYCNARKYWKYGSYQYYWGQGTQVTVSW,high polyreactivity
13,QVQLVESGGGLVQAGGSLRLSCAASGSIFYGNAMGWYRQAPGKERELVAAIDGTGASTYYADSVKGRFTISRDNAKNTVYLKMNSLKPEDTAVYYCNKALTSKDYPVRTVERDYWGQGTQVTVSS,low polyreactivity
14,QVQLVESGGGLVQAGGSLRLSCAASGSIFYGNAMGWYRQAPGKERELVAAISARGGSTNYADSVKGRFTISRDNAKNTVYLQMNSLKPEDTAVYYCAADTPVWSGYWYDYWGQGTQVTVSS,low polyreactivity
15,QVQLVESGGGLVQAGGSLRLSCAASGSIFYGNAMGWYRQAPGKERELVAAISKRGGSTYYADSVKGRFTISRDNAKNTVYLQMNSLKPEDTAVYYCAKATAGHTEYYSWGQGTQVTVSS,high polyreactivity
16,QVQLVESGGGLVQAGGSLRLSCAASGSIFYGNAMGWYRQAPGKERELVAAISNVGRTDYADSVKGRFTISRDNAKNTVYLQMNSLKPEDTAVYYCAAGVYSGYNRYFAPRSWFGYYYWGQGTQVTVSS,low polyreactivity
17,QVQLVESGGGLVQAGGSLRLSCAASGSIFYGNTMGWYRQAPGKERELVAAISSGGSTKYADSVKGRFTISRDNAKNTVYLQMNSLKPEDTAVYYCAKVAPRSSSSQEYYYWGQGTQVTVSS,low polyreactivity
18,QVQLVESGGGLVQAGGSLRLSCAASGSIFYGYAMGWYRQAPGKERELVAAISFSGGSTHYADSVKGRFTISRDNAKNTVYLQMNSLKPEDTAVYYCATDSGTPGDDEYWGQGTQVTVSS,low polyreactivity
19,QVQLVESGGGLVQAGGSLRLSCAASGSIFYGYAMGWYRQAPGKERELVAAISGNGGSTYYADSVKGRFTISRDNAKNTVYLQMNRLKPEDTAVYYCAVEVYHYGFEYDYWGLGTQVTVSS,high polyreactivity
20,QVQLVESGGGLVQAGGSLRLSCAASGSIFYGYAMGWYRQAPGKERELVAGISNGGSTNYADSVKGRFTISRDNAKNTVYLQMNSLKPEDTAVYYCNRDGTYVYHGGEYCGQGTQVTVSS,low polyreactivity
21,QVQLVESGGGLVQAGGSLRLSCAASGSIFYGYAMGWYRQAPGKERELVAVITDGGGSTYYADSVKGRFTISRDNAKNTVYLQMNSLKPEDTAVYYCAADSWGPYYYSSYSYDYWGQGTQVTVSS,low polyreactivity
22,QVQLVESGGGLVQAGGSLRLSCAASGSIFYHNAMGWYRQAPGKERELVAAITWSGSTTYYADSVKGRFTISRDNAKNTVYLQMNSLKPEDTAVYYCNAGNRHGHYDYWGQGTQVTVSS,low polyreactivity
